# Measurements as given in the supplement of paper PMC10065799, “High-throughput profiling of sequence recognition by tyrosine kinases and SH2 domains using bacterial peptide display” (eLife, 2023).
# Assays:
# c-Src SH2 = test: SH2 binding enrichment of the phosphorylated peptide, bacterial display (enrichment ratio); higher = better substrate or ligand; peptides without Tyr show the background
# Grb2 SH2 = Grb2 SH2 (UniProt P62993); test: as above
# SHP2-C SH2 = test: as above
# Jak2 = Jak2 (UniProt O60674); test: phosphorylation enrichment, bacterial display (enrichment ratio); higher = better substrate or ligand; peptides without Tyr show the background
# FGFR3 = FGFR3 (UniProt P22607); test: as above
# EPHB1 = EPHB1 (UniProt P54762); test: as above
# MERTK = MERTK (UniProt Q12866); test: as above
# EPHB2 = EPHB2 (UniProt P29323); test: as above
# c-Abl (mouse) = test: as above
# Fyn = Fyn (UniProt P06241); test: as above
# c-Src = test: as above
# AncSZ = test: as above
# Fer (mouse) = test: as above
# Hck = Hck (UniProt P08631); test: as above
# FGFR1 = FGFR1 (UniProt P11362); test: as above
# Fes = Fes (UniProt P07332); test: as above
# 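Throughout, for SH2 binding enrichment of the phosphorylated peptide, bacterial display: peptide library displayed on the E. coli surface as eCPX fusions, selected cells deep-sequenced, score is each peptide's frequency after selection divided by its frequency in the input.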
# 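Throughout, for phosphorylation enrichment, bacterial display: 11-residue human phosphosite peptides and single-mutation variants displayed on the E. coli surface, counted by deep sequencing, each peptide's frequency after selection divided by its frequency in the unselected input library; frequency after pTyr selection over input frequency; kinase dosed for 20-30% of maximal phosphorylation in three min.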
# Hck, sequence (P08631 whole entry, looked up): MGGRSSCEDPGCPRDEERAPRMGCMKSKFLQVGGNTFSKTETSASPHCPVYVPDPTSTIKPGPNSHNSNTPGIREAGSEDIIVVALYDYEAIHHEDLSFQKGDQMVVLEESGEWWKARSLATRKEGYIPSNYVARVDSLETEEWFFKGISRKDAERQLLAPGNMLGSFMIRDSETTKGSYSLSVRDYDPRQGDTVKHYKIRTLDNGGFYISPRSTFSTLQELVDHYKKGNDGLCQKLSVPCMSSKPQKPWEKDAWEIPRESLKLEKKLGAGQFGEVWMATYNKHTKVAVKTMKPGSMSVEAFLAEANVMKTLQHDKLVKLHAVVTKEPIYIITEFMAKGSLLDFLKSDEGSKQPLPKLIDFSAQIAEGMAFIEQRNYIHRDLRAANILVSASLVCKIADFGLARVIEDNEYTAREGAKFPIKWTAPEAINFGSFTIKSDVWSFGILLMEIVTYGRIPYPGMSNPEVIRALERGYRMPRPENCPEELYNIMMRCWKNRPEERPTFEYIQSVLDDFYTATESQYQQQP
# EPHB1, sequence (P54762 whole entry, looked up): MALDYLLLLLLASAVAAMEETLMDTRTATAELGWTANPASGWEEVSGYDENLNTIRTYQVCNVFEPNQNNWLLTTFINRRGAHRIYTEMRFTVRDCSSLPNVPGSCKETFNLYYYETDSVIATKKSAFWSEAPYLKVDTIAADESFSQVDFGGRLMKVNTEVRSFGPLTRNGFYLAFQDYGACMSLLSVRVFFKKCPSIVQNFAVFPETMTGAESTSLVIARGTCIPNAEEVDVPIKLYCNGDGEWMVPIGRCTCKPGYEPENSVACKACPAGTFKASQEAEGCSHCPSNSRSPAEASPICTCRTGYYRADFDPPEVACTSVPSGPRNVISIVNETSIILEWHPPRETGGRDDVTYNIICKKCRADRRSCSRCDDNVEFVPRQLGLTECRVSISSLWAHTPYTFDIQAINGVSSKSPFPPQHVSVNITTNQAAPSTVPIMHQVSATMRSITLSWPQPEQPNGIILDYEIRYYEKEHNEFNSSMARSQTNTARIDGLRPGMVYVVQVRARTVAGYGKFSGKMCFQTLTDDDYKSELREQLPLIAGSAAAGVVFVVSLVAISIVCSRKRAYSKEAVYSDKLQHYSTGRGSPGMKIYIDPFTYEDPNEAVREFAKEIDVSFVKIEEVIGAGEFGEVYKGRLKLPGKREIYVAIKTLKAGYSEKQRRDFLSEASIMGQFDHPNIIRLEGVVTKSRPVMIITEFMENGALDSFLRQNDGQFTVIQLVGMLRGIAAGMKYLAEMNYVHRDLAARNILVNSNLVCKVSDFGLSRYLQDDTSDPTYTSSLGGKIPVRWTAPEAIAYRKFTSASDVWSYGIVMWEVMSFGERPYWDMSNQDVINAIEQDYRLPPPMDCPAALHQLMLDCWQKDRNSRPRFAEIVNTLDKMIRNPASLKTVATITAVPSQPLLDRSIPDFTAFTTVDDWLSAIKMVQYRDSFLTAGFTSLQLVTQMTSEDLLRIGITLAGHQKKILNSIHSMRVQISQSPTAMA
# Fes, sequence (P07332 whole entry, looked up, the tested form may be a part): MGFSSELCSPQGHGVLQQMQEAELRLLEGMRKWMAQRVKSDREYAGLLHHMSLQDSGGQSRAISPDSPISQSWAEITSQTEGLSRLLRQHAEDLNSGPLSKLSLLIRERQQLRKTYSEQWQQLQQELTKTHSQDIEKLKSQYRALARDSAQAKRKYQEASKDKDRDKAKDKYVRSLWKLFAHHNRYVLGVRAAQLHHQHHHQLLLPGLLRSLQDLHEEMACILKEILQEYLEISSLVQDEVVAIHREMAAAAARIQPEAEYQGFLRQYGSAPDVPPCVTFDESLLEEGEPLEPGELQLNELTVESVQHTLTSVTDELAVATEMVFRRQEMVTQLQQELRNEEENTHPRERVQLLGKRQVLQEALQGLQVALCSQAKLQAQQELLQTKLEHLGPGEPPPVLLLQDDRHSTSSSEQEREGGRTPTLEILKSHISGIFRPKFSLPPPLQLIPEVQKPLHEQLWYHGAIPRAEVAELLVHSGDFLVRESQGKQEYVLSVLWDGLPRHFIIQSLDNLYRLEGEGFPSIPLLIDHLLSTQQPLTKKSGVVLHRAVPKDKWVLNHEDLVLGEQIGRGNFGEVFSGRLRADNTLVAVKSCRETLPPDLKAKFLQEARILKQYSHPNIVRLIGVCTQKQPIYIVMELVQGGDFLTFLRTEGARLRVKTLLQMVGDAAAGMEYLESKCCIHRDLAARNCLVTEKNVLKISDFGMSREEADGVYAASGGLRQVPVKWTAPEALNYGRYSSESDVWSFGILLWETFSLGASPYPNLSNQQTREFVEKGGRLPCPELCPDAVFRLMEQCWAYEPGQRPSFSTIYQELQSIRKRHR
# FGFR3, sequence (P22607 whole entry, looked up): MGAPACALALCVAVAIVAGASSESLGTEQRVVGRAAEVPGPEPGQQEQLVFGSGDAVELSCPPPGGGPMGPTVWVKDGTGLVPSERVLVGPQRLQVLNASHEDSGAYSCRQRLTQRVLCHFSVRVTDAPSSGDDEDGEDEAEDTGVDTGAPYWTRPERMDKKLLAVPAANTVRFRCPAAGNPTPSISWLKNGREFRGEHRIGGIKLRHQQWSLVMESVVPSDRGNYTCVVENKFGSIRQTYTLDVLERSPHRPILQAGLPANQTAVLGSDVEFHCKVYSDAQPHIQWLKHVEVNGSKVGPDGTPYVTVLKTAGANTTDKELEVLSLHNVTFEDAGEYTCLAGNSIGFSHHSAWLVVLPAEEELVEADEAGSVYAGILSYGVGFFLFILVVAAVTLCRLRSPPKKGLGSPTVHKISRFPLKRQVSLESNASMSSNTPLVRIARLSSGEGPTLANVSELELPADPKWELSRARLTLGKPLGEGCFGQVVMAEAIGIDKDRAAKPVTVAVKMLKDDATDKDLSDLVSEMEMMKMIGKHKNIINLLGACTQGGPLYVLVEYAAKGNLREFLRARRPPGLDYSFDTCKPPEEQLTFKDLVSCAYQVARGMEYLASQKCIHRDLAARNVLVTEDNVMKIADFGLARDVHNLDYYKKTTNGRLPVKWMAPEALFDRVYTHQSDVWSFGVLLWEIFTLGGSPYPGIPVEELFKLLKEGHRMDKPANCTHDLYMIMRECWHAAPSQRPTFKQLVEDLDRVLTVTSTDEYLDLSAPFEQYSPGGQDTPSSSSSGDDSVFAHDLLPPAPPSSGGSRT
# Fyn, sequence (P06241 whole entry, looked up): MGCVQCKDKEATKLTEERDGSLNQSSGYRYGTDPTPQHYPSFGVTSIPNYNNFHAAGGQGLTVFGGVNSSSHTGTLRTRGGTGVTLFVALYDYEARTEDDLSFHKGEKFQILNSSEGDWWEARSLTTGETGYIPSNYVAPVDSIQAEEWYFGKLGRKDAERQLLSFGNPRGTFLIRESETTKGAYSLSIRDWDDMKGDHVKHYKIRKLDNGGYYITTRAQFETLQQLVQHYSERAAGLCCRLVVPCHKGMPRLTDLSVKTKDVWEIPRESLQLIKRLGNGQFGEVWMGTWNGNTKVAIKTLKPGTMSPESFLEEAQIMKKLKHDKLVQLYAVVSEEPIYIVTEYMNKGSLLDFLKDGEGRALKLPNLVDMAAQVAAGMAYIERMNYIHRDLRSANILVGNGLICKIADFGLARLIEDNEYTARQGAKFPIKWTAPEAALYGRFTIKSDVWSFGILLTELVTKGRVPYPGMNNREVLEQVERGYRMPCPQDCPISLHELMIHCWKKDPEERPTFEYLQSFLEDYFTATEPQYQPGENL
# FGFR1, sequence (P11362 whole entry, looked up): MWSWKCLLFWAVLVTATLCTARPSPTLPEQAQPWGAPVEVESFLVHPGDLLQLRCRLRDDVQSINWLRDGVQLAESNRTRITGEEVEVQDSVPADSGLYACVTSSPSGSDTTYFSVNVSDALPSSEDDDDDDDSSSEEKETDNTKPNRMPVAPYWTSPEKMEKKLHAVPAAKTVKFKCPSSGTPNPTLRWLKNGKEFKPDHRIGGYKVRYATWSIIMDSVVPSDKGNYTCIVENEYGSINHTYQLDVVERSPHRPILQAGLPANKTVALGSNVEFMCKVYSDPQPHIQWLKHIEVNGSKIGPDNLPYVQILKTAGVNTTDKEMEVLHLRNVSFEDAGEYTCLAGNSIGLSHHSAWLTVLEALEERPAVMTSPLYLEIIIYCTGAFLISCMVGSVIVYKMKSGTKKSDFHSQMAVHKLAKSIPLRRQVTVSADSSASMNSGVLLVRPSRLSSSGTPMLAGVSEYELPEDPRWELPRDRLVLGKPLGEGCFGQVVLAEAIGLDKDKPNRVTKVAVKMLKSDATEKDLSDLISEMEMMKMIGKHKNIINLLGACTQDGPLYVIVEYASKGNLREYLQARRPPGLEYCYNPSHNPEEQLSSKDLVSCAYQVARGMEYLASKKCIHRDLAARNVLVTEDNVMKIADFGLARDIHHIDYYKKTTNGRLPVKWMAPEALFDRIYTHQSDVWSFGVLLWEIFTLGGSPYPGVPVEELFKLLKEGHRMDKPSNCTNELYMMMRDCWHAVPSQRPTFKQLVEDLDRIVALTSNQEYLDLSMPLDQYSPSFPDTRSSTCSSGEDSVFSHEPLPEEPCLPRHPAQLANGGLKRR
# Grb2 SH2, sequence (P62993 whole entry, looked up): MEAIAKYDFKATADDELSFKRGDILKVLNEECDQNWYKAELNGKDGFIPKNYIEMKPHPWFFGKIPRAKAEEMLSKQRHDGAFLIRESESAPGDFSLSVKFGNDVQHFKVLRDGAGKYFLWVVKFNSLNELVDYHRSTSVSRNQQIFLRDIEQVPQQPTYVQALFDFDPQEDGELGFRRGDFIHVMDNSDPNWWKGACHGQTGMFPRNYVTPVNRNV
Sequence,SH2 binding enrichment (c-Src SH2),SH2 binding enrichment (Grb2 SH2),SH2 binding enrichment (SHP2-C SH2),phosphorylation enrichment (Jak2),phosphorylation enrichment (FGFR3),phosphorylation enrichment (EPHB1),phosphorylation enrichment (MERTK),phosphorylation enrichment (EPHB2),phosphorylation enrichment (c-Abl (mouse)),phosphorylation enrichment (Fyn),phosphorylation enrichment (c-Src),phosphorylation enrichment (AncSZ),phosphorylation enrichment (Fer (mouse)),phosphorylation enrichment (Hck),phosphorylation enrichment (FGFR1),phosphorylation enrichment (Fes)
DGQFVYKLTDF [TBK1_Y153_S151F],0.481,0.859,0.773,0.799,0.649,0.467,0.366,0.587,0.482,2.44,2.32,1.06,0.739,0.832,0.498,1.01
EVNQDYGLDPK [FH_Y110],0.508,0.807,0.581,1.17,0.837,0.631,0.443,0.546,0.765,0.604,0.466,1.31,0.519,0.596,0.572,1.29
CGTPEYLAPEI [PRKACA_Y205],0.421,0.87,0.586,1.51,1.06,0.893,0.463,0.757,2.42,0.531,0.535,2.65,0.679,0.633,0.718,1.57
QMEKIYTQQIQ [CCNB1IP1_Y125],0.478,0.807,0.398,1.07,0.5,0.747,1.19,0.466,1.03,0.663,1.55,1.12,0.651,0.628,0.673,1.06
ERCAQYKKDVA [ALDOA_Y138_G142V],0.585,1.07,0.976,0.65,0.604,0.527,0.385,0.607,0.624,0.596,0.491,0.726,0.45,0.525,0.579,1.05
PCNLIYFGEHP [TRPV6_Y201],0.976,1.48,1.15,3.44,1.68,1.17,2.21,0.745,2.89,3.66,12.2,3.19,1.07,2.08,1.76,2.64
SRKSEYLLPVA [MYLK_Y611],0.418,0.789,0.786,0.509,0.569,0.504,0.413,0.512,0.93,0.619,0.526,0.748,0.44,0.465,0.392,0.602
IGEGTYGTVFK [CDK5_Y15],0.434,0.699,0.703,0.788,0.58,0.989,0.825,2.08,0.676,10.4,6.34,0.707,1.41,9.06,0.515,0.793
SSDPDYLAAVD [GLB1_Y154],0.482,1.02,0.742,1.12,0.885,0.693,0.487,0.74,0.814,0.656,0.55,1.34,0.604,0.631,0.56,1.27
QDRTYYESVRT [SPEN_Y633],3.76,0.724,1.54,0.82,1.37,0.98,1.21,0.758,0.61,2.28,2.66,0.996,4.79,4.01,1.9,0.874
AYGGGYGGVLT [KRT19_Y65],0.401,0.623,0.614,0.485,0.645,0.461,0.372,0.458,0.485,0.442,0.573,0.583,0.477,0.605,0.456,0.574
FGSSSYRGAGG [RPA2_Y14_G15R_YF],0.353,1.01,0.548,0.692,0.584,0.431,0.568,0.551,0.998,0.494,0.659,0.64,0.409,0.523,0.551,0.876
TLCLCYKEIEE [ATP8B1_Y658],1.29,0.921,0.937,1.36,1.05,1.05,0.618,0.825,0.886,0.521,0.624,1.63,0.704,0.733,0.592,1.96
RRGMPYGGRGD [TGM1_Y312],0.384,0.538,0.526,0.686,0.904,0.839,0.871,0.881,0.75,0.749,0.68,0.878,0.746,0.739,0.686,0.618
LDLSFYTTSSS [EMD_Y182_P183T_YF],0.595,0.945,0.657,2.49,1.53,1.04,0.897,1.29,2.47,0.93,0.785,2.23,0.882,0.999,1.12,2.65
PADRAYSWYQH [NDST1_Y711],0.753,0.747,0.47,1.68,1.16,1.19,2.86,0.817,1.58,0.617,1.77,0.98,15.8,0.888,1.33,1.61
